Reference: patent US20070160576A1, “IL-17A/F heterologous polypeptides and therapeutic uses thereof” (Genentech, Inc., priority 2001, published 2007)
“Also recorded” adds a separate entry of the source.

What was measured:
IL-17R [1] = target: T1, IL-17R (Homo sapiens, UniProt Q96F46); experiment: SPR (BIAcore) binding measurements; details: for SPR binding to IL-17R (in words): IL-17R in solution, cytokine immobilized
T1 construct: the extracellular domains (ECDs) of either of the two receptors IL-17R (designated PRO1) and IL-17RH1 (PRO5801)
Description: (§1) The kinetics and affinity of IL-17, IL-17E (PRO10272), or IL-17F (PRO20110) binding to IL-17R or IL-17RH1 (PRO5801) were determined by SPR measurements on a Pharmacia BIAcore 1000 instrument (Phamacia Biosensor, Piscataway N.J.). IL-17 ligand or receptor was immobilized onto a flow cell of a CM5 sensor chip via random coupling to amino groups, N-hydroxysuccinimide chemistry, by using a protocol developed by the manufacturer. An immobilization level of about 500 resonance units (RU) was obtained for IL-17R, IL-17RH1, and IL-17F, whereas IL-17 and IL-17E immobilization levels were 1200 and 1500 RU, respectively. A strong signal was obtained for IL-17R binding to immobilized IL-17. […] After blocking unreacted sites with ethanolamine, binding measurements were performed using a flow rate of 25 ┘L/min. Sensorgrams-were obtained for a series of six, two-fold serially diluted protein solutions. The highest concentration used was 1000 or 500 nM protein and the solutions were prepared in the running buffer, PBS containing 0.05% Tween-20. The sensor chip surface was regenerated between binding cycles by injection of a 25 ┘L aliquot of 0.1 M acetic acid, 0.2 M NaCl, pH 3 to elute non-covalent bound protein. Sensorgrams were evaluated according to a 1:1 binding model by non-linear regression analysis using software supplied by the manufacturer. In separate experiments to measure competition between IL-17 variants for binding receptors, a fixed concentration of receptor was incubated with a varied concentration of IL-17 protein followed by injection of this mixture onto a flow cell having immobilized IL-17 protein. The amount of bound receptor was determined from the resonance signal obtained after completion of the association phase.

IL-17RH1 (PRO5801) = target: T2, IL-17RH1 (PRO5801) (Homo sapiens, UniProt Q9NRM6); experiment: SPR (BIAcore) binding measurements; details: for Koff × 10^4: value is Koff × 10^4; for Kon × 10^−5: value is Kon × 10^−5
T2 construct: the extracellular domains (ECDs) of either of the two receptors IL-17R (designated PRO1) and IL-17RH1 (PRO5801)
T2 sequence (Q9NRM6 18-292 limits assumed): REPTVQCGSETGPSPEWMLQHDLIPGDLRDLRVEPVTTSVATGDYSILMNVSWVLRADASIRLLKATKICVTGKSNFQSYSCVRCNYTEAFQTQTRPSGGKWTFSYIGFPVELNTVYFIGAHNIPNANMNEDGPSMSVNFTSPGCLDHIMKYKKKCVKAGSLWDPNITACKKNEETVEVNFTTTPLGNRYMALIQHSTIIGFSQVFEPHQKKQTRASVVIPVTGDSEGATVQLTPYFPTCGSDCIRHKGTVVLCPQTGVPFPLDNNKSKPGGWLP
Description: as §1

IL-17R [2] = target: T1, IL-17R; experiment: SPR competition for receptor binding to immobilized IL-17; details: IL-17R 500 nM; IL-17F at 2 ┘M
Description: as §1, with “The sensor chip surface was regenerated between binding cycles by injection of a 25 ┘L aliquot of 0.1 M acetic acid, 0.2 M NaCl, pH 3 to elute non-covalent bound protein.” left out, “In separate experiments to measure competition between IL-17 variants for binding receptors, a fixed concentration of receptor was incubated with a varied concentration of IL-17 protein followed by injection of this mixture onto a flow cell having immobilized IL-17 protein.” left out, “phase. […]” for “phase.”

TK-10 cells = experiment: IL-8 and IL-6 production in TK-10 cells (ELISA of conditioned media); type: cell-based, human; details: for IL-8 production: IL-8 ELISA
Description: Fractions were tested by incubation with TK-10 cells for 24 hours (0.033 microliters fraction/ml of cell culture media). Conditioned media was then collected and IL-8 and IL-6 concentration measurements were performed on each fraction by ELISA. […] Gels, blots, amino acid sequence and activity assays were run on this fraction (FIG. 3). Alternatively, fraction 31 and the remaining volume of fraction 32, from the HiLoad S Sepharose run were pooled and dialyzed against Buffer A for eight hours using a 10 kD cutoff membrane and passed through a 0.2 micron filter. […] Fractions 26-43 were assayed and protein concentrations were determined by amino acid analysis. Pure IL-17A/F was identified in fractions 31-33 as a single protein with apparent molecular mass of 30-35 kD. The concentrations of fractions 31, 32 and 33 were 0.258, 0.359 and 0.291 mg/ml respectively.
IL-17A/F, IL-17 and IL-17F were incubated with TK-10 cells at the indicated concentrations for 24 hours.
TK-10 conditioned media was collected and analyzed by IL-8 ELISA and IL-6 ELISA.

[3] = target: human IL-17 receptor (IL-17R, PRO1) (Homo sapiens, UniProt Q96F46); experiment: Receptor/ligand interaction screening assay (immunoadhesin); type: binding
Description: (§2) In general, the assay is performed as follows. A PRO polypeptide of the present invention suspected of being a ligand for a receptor is expressed as a fusion protein containing the Fc domain of human IgG (an immunoadhesin). Receptor-ligand binding is detected by allowing interaction of the immunoadhesin polypeptide with cells (e.g. Cos cells) expressing candidate PRO polypeptide receptors and visualization of bound immunoadhesin with fluorescent reagents directed toward the Fc fusion domain and examination by microscope. Cells expressing candidate receptors are produced by transient transfection, in parallel, of defined subsets of a library of cDNA expression vectors encoding PRO polypeptides that may function as receptor molecules. Cells are then incubated for 1 hour in the presence of the PRO polypeptide immunoadhesin being tested for possible receptor binding. The cells are then washed and fixed with paraformaldehyde. The cells are then incubated with fluorescent conjugated antibody directed against the Fc portion of the PRO polypeptide immunoadhesin (e.g. FITC conjugated goat anti-human-Fc antibody). The cells are then washed again and examined by microscope. A positive interaction is judged by the presence of fluorescent labeling of cells transfected with cDNA encoding a particular PRO polypeptide receptor or pool of receptors and an absence of similar fluorescent labeling of similarly prepared cells that have been transfected with other cDNA or pools of cDNA. If a defined pool of cDNA expression vectors is judged to be positive for interaction with a PRO polypeptide immunoadhesin, the individual cDNA species that comprise the pool are tested individually (the pool is “broken down”) to determine the specific cDNA that encodes a receptor able to interact with the PRO polypeptide immunoadhesin.
(§3) In another embodiment of this assay, an epitope-tagged potential ligand PRO polypeptide (e.g., 8 histidine “His” tag) is allowed to interact with a panel of potential receptor PRO polypeptide molecules that have been expressed as fusions with the Fc domain of human IgG (immunoadhesins). Following a 1 hour co-incubation with the epitope tagged PRO polypeptide, the candidate receptors are each immunoprecipitated with protein A beads and the beads are washed. Potential ligand interaction is determined by Western blot analysis of the immunoprecipitated complexes with antibody directed towards the epitope tag. An interaction is judged to occur if a band of the anticipated molecular weight of the epitope tagged protein is observed in the Western blot analysis with a candidate receptor, but is not observed to occur with the other members of the panel of potential receptors.

[4] = target: T3, IL-17RH1 (PRO5801) extracellular domain, purified, monomeric (human, UniProt Q9NRM6 18-292); experiment: SPR (BIAcore), IL-17F immobilized
T3 construct: extracellular domain
T3 sequence (looked up): T2 sequence (Q9NRM6 18-292 limits assumed)
Description: (§4) Sensorgrams-were obtained for a series of six, two-fold serially diluted protein solutions. The highest concentration used was 1000 or 500 nM protein and the solutions were prepared in the running buffer, PBS containing 0.05% Tween-20. The sensor chip surface was regenerated between binding cycles by injection of a 25 ┘L aliquot of 0.1 M acetic acid, 0.2 M NaCl, pH 3 to elute non-covalent bound protein. Sensorgrams were evaluated according to a 1:1 binding model by non-linear regression analysis using software supplied by the manufacturer. […] The amount of bound receptor was determined from the resonance signal obtained after completion of the association phase.

[5] = target: T4, IL-17R on transfected Cos cells (human, UniProt Q96F46 33-866); experiment: binding to transfected Cos cells; data not shown
T4 construct: whole, on cells; also called Cos cells transfected with IL-17R

IL-17RH1 = target: T5, IL-17RH1 (Homo sapiens, UniProt Q9NRM6); experiment: SPR competition for receptor binding to immobilized IL-17E; details: IL-17RH1 31 nM; IL-17F at 1.3 ┘M
T5 construct: the extracellular domains (ECDs) of either of the two receptors IL-17R (designated PRO1) and IL-17RH1 (PRO5801)
T5 sequence (Q9NRM6 18-292 limits assumed): T2 sequence (Q9NRM6 18-292 limits assumed)
Description: as §1, with “The sensor chip surface was regenerated between binding cycles by injection of a 25 ┘L aliquot of 0.1 M acetic acid, 0.2 M NaCl, pH 3 to elute non-covalent bound protein.” left out, “In separate experiments to measure competition between IL-17 variants for binding receptors, a fixed concentration of receptor was incubated with a varied concentration of IL-17 protein followed by injection of this mixture onto a flow cell having immobilized IL-17 protein.” left out, “phase. […]” for “phase.”

[6] = target: T3, IL-17RH1 (PRO5801) extracellular …; experiment: SPR (BIAcore 1000), IL-17E immobilized, 1:1 model
Description: as §4

[7] = target: T3, IL-17RH1 (PRO5801) extracellular …; experiment: SPR (BIAcore 1000), IL-17RH1 immobilized, 1:1 model
[8] = target: T6, IL-17R (PRO1) extracellular domain, purified, monomeric (human, UniProt Q96F46 33-320); experiment: SPR (BIAcore)
T6 construct: extracellular domain; also called human IL-17 receptor
Description: as §4

[9] = target: T7, PRO5801 (human IL-17RH1 receptor) (Homo sapiens, UniProt Q9NRM6); experiment: Receptor/ligand interaction screening assay (immunoadhesin); type: binding
T7 sequence (Q9NRM6 18-502): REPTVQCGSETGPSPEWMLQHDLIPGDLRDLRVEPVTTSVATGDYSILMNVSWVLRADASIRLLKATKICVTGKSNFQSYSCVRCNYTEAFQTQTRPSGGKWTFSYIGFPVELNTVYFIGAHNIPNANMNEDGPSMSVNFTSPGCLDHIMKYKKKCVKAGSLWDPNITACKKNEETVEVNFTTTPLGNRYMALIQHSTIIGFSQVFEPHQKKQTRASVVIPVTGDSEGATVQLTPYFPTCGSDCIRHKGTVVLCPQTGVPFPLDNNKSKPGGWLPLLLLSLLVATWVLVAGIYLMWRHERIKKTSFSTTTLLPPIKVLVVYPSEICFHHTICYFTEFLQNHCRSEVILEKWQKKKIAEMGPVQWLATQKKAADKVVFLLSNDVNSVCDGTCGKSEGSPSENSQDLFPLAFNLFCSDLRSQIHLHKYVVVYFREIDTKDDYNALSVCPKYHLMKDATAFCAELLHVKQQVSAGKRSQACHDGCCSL
Description: as §2, §3

[10] = immobilized IL-17E, ligand IL-17RH1
[11] = immobilized IL-17RH1, ligand IL-17E

With “IL-17: human IL-17 cytokine, SEQ ID NO:3” the “SPR signal for binding to immobilized IL-17R” value (IL-17R [1]; IL-17R immobilized) was “weak signal”, the “SPR binding to IL-17R (in words)” value (IL-17R [1]) was “strong signal; also recorded: modest binding affinity” and the “Koff × 10^4” value (IL-17R [1]; immobilized IL-17, ligand IL-17R, value is Koff × 10^4) was 6.7 s^−1. For the same molecule, the “Kon × 10^−5” value (IL-17R [1]; immobilized IL-17, ligand IL-17R, value is Kon × 10^−5) was 0.093 M^−1 s^−1, the “SPR binding to IL-17RH1 (in words)” value (IL-17RH1 (PRO5801)) was “no binding was observed” and the “competition for binding of IL-17R to immobilized IL-17” value (IL-17R [2]) was “efficiently block binding”. The IL-8 production (TK-10 cells; TK-10 cells, 24 hours) was “production of IL-8” and the “binding to human IL-17 receptor (IL-17R, PRO1)” value [3] was “binds to”.

With “IL-17A/F: novel human cytokine, covalent heterodimer of one IL-17 chain and one IL-17F chain” the “difference in activity (potency) from IL-17 and IL-17F” value (TK-10 cells; IL-8 induction in TK-10 cells, greater activity than IL-17F) was “roughly an order of magnitude”, the IL-6 production (TK-10 cells; TK-10 cells, 24 hours, IL-6 ELISA) was “induced production of IL-6” and the IL-8 production (TK-10 cells; TK-10 cells, 24 hours) was “robustly induced IL-8 production; also recorded: induce IL-8 production; also recorded: potent IL-8 inducing activity”. The IL-8 production (TK-10 cells; TK-10 cells, 24 hours, listed as Fraction 38) was “robust activity”.

B1: human IL-17F (PRO20110) (ligand)
chain: RKIPKVGHTFFQKPESCPPVPGGSMKLDIGIINENQRVSMSRNIESRSTSPWNYTVTWDPNRYPSEVVQAQCRNLGCINAQGKEDISMNSVPIQQETLVVRRKHQGCSVSFQLEKVLVTVGCTCVTPVIHHVQ
notes: disulfide-linked homodimer, glycosylated at Asn 53
B1: no binding (tested: up to 0.5 µM (printed 0.5 ┘M)) [4]; binds [5].

B2: human IL-17E (PRO10272), protein used in SPR (ligand, UniProt Q9H293 33-177, looked up)
chain: YSHWPSCCPSKGQDTSEELLRWSTVPVPPLEPARPNRHPESCRASEDGPLNSRAISPWRYELDRDLNRLPQDLYHARCLCPHCVSLQTGSHMDPRGNSELLYHNQTVFYRRPCHGEKGTHKGYCLERRLYRVSLACVCVRPRVMG
notes: construct not described
In the case of B2, the “SPR binding to IL-17R (in words)” value (IL-17R [1]) is reported as “no binding was observed”, the “SPR binding to IL-17RH1 (in words)” value (IL-17RH1 (PRO5801)) is reported as “high affinity binding” and the “Koff × 10^4” value (IL-17RH1 (PRO5801); [10]) is reported as 7.0 s^−1. The “Kon × 10^−5” value (IL-17RH1 (PRO5801); [10]) was 6.7 M^−1 s^−1, the “Koff × 10^4” value (IL-17RH1 (PRO5801); [11]) was 6.2 s^−1 and the “Kon × 10^−5” value (IL-17RH1 (PRO5801); [11]) was 4.3 M^−1 s^−1. For the same molecule, the “competition for binding of IL-17RH1 to immobilized IL-17E” value (IL-17RH1) was “completely inhibited”, the Kd [6] was 1.1 nM and the koff [6] was 0.0007 s⁻¹. The kon [6] was 670000 M⁻¹ s⁻¹, the Kd [7] was 1.4 nM and the koff [7] was 0.00062 s⁻¹. The kon [7] was 430000 M⁻¹ s⁻¹, the binding result [8] was “no binding” and the “binding to IL-17RH1 receptor (PRO5801)” value [9] was “binds to”.
